Assay results taken from patent US20130059782.

Target: full-length TF his-tag modified protein in yeast-derived microvesicles (TT-173): mature hTF with Asn124Ala mutation and six histidines at the C-terminus

B1: activated coagulation Factor VII (purified commercial FVIIa) (protein)
chain: ANAFLEELRPGSLERECKEEQCSFEEAREIFKDAERTKLFWISYSDGDQCASSPCQNGGSCKDQLQSYICFCLPAFEGRNCETHKDDQLICVNENGGCEQYCSDHTGTKRSCRCHEGYSLLADGVSCTPTVEYPCGKIPILEKRNASKPQGRIVGGKVCPKGECPWQVLLLVNGAQLCGGTLINTIWVVSAAHCFDKIKNWRNLIAVLGEHDLSEHDGDEQSRRVAQVIIPSTYVPGTTNHDIALLRLHQPVVLTDHVVPLCLPERTFSERTLAFVRFSLVSGWGQLLDRGATALELMVLNVPRLMTQDCLQQSRKVGDSPNITEYMFCAGYSDGSKDSCKGDSGGPHATHYRGTWYLTGIVSWGQGCATVGHFGVYTRVSQYIEWLQKLMRSEPRPGVLLRAPFP
  amidolytic activity of the TF:FVIIa complex (chromogenic substrate S-2288), TT-173 with or without added PS: there was no appreciable differences in the amidolytic activity between TT-173 with or without PS at the three concentrations of TT-173 tested, and at both concentrations of FVIIa used, 50 nM (not shown) or 500 nM (FIG. 7)
